Laboratory results: patent US20100041596A1
One block for each substance: values may come before it.

Tests used:
[1] = target: p6055-211 (Homo sapiens (Human)) (UniProt P19438); assay: cell staining, % positive cells / % HA positive cells, p60ΔCD set at 1
[2] = target: p60ΔCD-HA E57A (Homo sapiens (Human)) (UniProt P19438); assay: as above
[3] = target: p60ΔCD-HA W108T (Homo sapiens (Human)) (UniProt P19438); assay: as above
[4] = target: p60ΔCD-HA (Homo sapiens (Human)) (UniProt P19438); assay: as above
[5] = target: p60ΔCD-HA DT49/50AA (Homo sapiens (Human)) (UniProt P19438); assay: as above
[6] = target: p60ΔCD-HA R77A (Homo sapiens (Human)) (UniProt P19438); assay: as above
[7] = target: p60ΔCD-HA K19E (Homo sapiens (Human)) (UniProt P19438); assay: as above
[8] = target: p60ΔCD-HA K32A (Homo sapiens (Human)) (UniProt P19438); assay: as above
[9] = target: p60ΔCD-HA KY19/20AA (Homo sapiens (Human)) (UniProt P19438); assay: as above
[10] = target: p60ΔCD-HA Q24A (Homo sapiens (Human)) (UniProt P19438); assay: as above
[11] = target: p60ΔCD-HA T61A (Homo sapiens (Human)) (UniProt P19438); assay: as above
[12] = target: p60ΔCD-HA L112E (Homo sapiens (Human)) (UniProt P19438); assay: as above
[13] = target: p60ΔCD-HA N66F (Homo sapiens (Human)) (UniProt P19438); assay: as above
[14] = target: p6055-211 (Homo sapiens (Human)) (UniProt P19438); assay: cell staining, normalized to HA staining, p60ΔCD set at 1
[15] = target: p60ΔCD-HA E57A (Homo sapiens (Human)) (UniProt P19438); assay: as above
[16] = target: p60ΔCD-HA W108T (Homo sapiens (Human)) (UniProt P19438); assay: as above
[17] = target: p60ΔCD-HA (Homo sapiens (Human)) (UniProt P19438); assay: as above
[18] = target: p60ΔCD-HA DT49/50AA (Homo sapiens (Human)) (UniProt P19438); assay: as above
[19] = target: p60ΔCD-HA R77A (Homo sapiens (Human)) (UniProt P19438); assay: as above
[20] = target: p60ΔCD-HA K19E (Homo sapiens (Human)) (UniProt P19438); assay: as above
[21] = target: p60ΔCD-HA K32A (Homo sapiens (Human)) (UniProt P19438); assay: as above
[22] = target: p60ΔCD-HA KY19/20AA (Homo sapiens (Human)) (UniProt P19438); assay: as above
[23] = target: p60ΔCD-HA Q24A (Homo sapiens (Human)) (UniProt P19438); assay: as above
[24] = target: p60ΔCD-HA T61A (Homo sapiens (Human)) (UniProt P19438); assay: as above
[25] = target: p60ΔCD-HA L112E (Homo sapiens (Human)) (UniProt P19438); assay: as above
[26] = target: p60ΔCD-HA N66F (Homo sapiens (Human)) (UniProt P19438); assay: as above

MAB225 staining normalized against HA staining (relative to p60ΔCD) [1]: 0.87 | MAB225 staining normalized against HA staining (relative to p60ΔCD) [2]: 1.68 | MAB225 staining normalized against HA staining (relative to p60ΔCD) [3]: 1.32 | MAB225 staining normalized against HA staining (relative to p60ΔCD) [4]: 1 | MAB225 staining normalized against HA staining (relative to p60ΔCD) [5]: 1.16 | MAB225 staining normalized against HA staining (relative to p60ΔCD) [6]: 1.06 | MAB225 staining normalized against HA staining (relative to p60ΔCD) [7]: 1.05 | MAB225 staining normalized against HA staining (relative to p60ΔCD) [8]: 0.36 | MAB225 staining normalized against HA staining (relative to p60ΔCD) [9]: 0.59 | MAB225 staining normalized against HA staining (relative to p60ΔCD) [10]: 1.06 | MAB225 staining normalized against HA staining (relative to p60ΔCD) [11]: 1.42 | MAB225 staining normalized against HA staining (relative to p60ΔCD) [12]: 1.31 | MAB225 staining normalized against HA staining (relative to p60ΔCD) [13]: 0.67
Substance: p60-specific monoclonal antibody clone MAB225 (R&D Systems)

clone 4.12 staining normalized against HA staining (relative to p60ΔCD) [14]: 0.02 | clone 4.12 staining normalized against HA staining (relative to p60ΔCD) [15]: 0.04 | clone 4.12 staining normalized against HA staining (relative to p60ΔCD) [16]: 1.11 | clone 4.12 staining normalized against HA staining (relative to p60ΔCD) [17]: 1 | clone 4.12 staining normalized against HA staining (relative to p60ΔCD) [18]: 0.96 | clone 4.12 staining normalized against HA staining (relative to p60ΔCD) [19]: 0.99 | clone 4.12 staining normalized against HA staining (relative to p60ΔCD) [20]: 1.07 | clone 4.12 staining normalized against HA staining (relative to p60ΔCD) [21]: 0.01 | clone 4.12 staining normalized against HA staining (relative to p60ΔCD) [22]: 0.14 | clone 4.12 staining normalized against HA staining (relative to p60ΔCD) [23]: 0.97 | clone 4.12 staining normalized against HA staining (relative to p60ΔCD) [24]: 1.28 | clone 4.12 staining normalized against HA staining (relative to p60ΔCD) [25]: 1.27 | clone 4.12 staining normalized against HA staining (relative to p60ΔCD) [26]: 0.04
Substance: p60-specific monoclonal antibody clone 4.12 (Zymed)
